Laboratory results taken from patent publication US20250215104A1.

Biological target: cell surface human uPAR (huPAR) (human) (UniProt Q03405)
Assay: cell-based or functional assay

Chain of cell surface human uPAR (huPAR) (human) (Q03405 23-305): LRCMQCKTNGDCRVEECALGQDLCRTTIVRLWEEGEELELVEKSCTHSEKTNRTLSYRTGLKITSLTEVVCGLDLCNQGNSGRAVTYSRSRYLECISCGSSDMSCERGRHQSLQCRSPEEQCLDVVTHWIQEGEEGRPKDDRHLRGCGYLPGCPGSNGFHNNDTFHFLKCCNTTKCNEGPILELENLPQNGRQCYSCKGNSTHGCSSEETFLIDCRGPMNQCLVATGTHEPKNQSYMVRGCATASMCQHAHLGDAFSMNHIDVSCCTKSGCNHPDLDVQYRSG

A cellular endocytosis: mean cellular fluorescent signal (FITC-conjugated antibody, 10 µg/mL, 1 hr, undifferentiated human podocytes) of 100 RFU was found for hIgG control antibody in this work.
